This is an account of results in article PMC8110956, “An infection-induced RhoB-Beclin 1-Hsp90 complex enhances clearance of uropathogenic Escherichia coli” (Nature Communications, 2021).

This experiment concerns the target T1, GST-fused Beclin 1 (human, UniProt Q14457 1-450).
T1 construct: Beclin 1, in pGEX4T-3; also called GST-Beclin 1; source: E. coli BL21 (DE3), purified (Glutathione Sepharose 4B)
Kind of experiment: pull-down; about 1 μg of each purified GST-fused protein combined in 0.8% BSA in PBS at 4 °C overnight; precipitated with anti-RhoB or anti-Beclin 1 antibody (IgG as control) plus protein G Sepharose; western blot. Particulars: both partners purified.

T1 sequence (Q14457 whole entry, the tested form may be a part): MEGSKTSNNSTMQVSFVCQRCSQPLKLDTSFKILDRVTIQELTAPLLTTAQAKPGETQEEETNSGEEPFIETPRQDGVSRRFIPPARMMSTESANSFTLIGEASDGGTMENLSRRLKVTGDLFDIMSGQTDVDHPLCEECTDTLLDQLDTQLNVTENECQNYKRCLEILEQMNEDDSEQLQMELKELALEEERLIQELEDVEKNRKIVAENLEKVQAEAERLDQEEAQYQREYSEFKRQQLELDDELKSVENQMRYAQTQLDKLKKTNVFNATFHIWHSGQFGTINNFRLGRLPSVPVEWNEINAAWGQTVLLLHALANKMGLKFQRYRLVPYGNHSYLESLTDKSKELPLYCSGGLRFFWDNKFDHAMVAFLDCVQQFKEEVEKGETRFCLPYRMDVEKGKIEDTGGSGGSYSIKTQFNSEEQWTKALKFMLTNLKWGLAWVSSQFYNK

B1: GST-RhoB (118–196) (domain or fragment, human, UniProt P62745 118-196, looked up)
chain: KKDLRSDEHVRTELARMKQEPVRTDDGRAMAVRIQAYDYLECSAKTKEGVREVFETATRAALQKRYGSQNGCINCCKVL
notes: source: E. coli BL21 (DE3), purified (Glutathione Sepharose 4B)
For B1, the binding result is given as “binds”.
